Test results: article PMC9638925 (Nucleic Acids Research, 2022)

Biological target: T1, USP15 (275–981) (human, UniProt Q9Y4E8 275-981)
T1 sequence: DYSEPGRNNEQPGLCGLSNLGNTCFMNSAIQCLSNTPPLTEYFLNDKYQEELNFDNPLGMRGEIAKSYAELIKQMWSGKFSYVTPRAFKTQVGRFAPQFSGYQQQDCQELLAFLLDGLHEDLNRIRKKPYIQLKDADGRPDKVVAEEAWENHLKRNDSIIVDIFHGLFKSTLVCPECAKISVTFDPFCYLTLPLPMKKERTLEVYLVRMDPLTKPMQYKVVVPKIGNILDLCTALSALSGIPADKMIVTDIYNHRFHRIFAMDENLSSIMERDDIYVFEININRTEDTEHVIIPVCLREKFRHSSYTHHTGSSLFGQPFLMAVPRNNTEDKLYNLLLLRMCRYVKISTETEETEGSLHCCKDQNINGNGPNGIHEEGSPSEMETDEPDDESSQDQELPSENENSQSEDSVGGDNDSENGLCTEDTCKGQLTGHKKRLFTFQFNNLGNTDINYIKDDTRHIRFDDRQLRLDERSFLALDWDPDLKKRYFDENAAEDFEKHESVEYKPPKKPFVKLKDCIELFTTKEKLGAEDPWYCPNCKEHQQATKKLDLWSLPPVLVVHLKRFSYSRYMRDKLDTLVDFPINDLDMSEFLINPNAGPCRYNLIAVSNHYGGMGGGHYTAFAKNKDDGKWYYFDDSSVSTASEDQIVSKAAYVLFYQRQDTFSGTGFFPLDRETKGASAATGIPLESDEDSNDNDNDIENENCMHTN
Assay: pull-down

B1: GST–cGAS (161–522) (domain or fragment)
chain: GASKLRAVLEKLKLSRDDISTAAGMVKGVVDHLLLRLKCDSAFRGVGLLNTGSYYEHVKISAPNEFDVMFKLEVPRIQLEEYSNTRAYYFVKFKRNPKENPLSQFLEGEILSASKMLSKFRKIIKEEINDIKDTDVIMKRKRGGSPAVTLLISEKISVDITLALESKSSWPASTQEGLRIQNWLSAKVRKQLRLKPFYLVPKHAKEGNGFQEETWRLSFSHIEKEILNNHGKSKTCCENKEEKCCRKDCLKLMKYLLEQLKERFKDKKHLDKFSSYHVKTAFFHVCTQNPQDSQWDRKDLGLCFDNCVTYFLQCLRTEKLENYFIPEFNLFSSNLIDKRSKEFLTKQIEYERNNEFPVFDEF
**Q.** Does B1 bind?
**A.** binds
